Laboratory results: patent US11672873 (NANTBIO, dated 2023)

T1: B7-H4 expressed on the human breast cancer cell line SkBr3 and on the B7-H4 expressing cell line MX-1 (human (SkBr3 is called a human breast …, UniProt Q7Z7D3 25-282))
T1 construct: whole, on cells; also called VTCN1; B7x
T1 sequence (looked up): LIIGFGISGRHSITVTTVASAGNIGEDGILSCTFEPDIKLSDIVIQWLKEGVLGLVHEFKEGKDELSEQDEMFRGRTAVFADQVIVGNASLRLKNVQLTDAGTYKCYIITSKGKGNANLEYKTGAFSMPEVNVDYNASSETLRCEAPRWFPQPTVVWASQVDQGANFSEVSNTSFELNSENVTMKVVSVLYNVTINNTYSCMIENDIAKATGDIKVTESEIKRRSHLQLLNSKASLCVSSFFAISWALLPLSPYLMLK


Target: T1, B7-H4 expressed on the human breast …
Test: staining of SkBr3 cells, antibody at 10 ug/ml (FIG. 1)

binding result	Binder
binds	anti-B7-H4 antibody 801 (antibody, V domains shown) VH: EVQLVESGGGLVQPGGSLRLSCAASGFTFNSYAMHWVRQAPGKGLEWVSAISGNGGSTRYADSVKGRFTISRDNSKNTLYLQMNSLRAEDTAVYYCARDRFRKVHGFDVWGQGTLVTVSS VL: DIQMTQSPSSLSASVGDRVTITCQASQDISNYLNWYQQKPGKAPKLLIYDASNLETGVPSRFSGSGSGTDFTFTISSLQPEDIATYYCQQDATFPLTFGQGTKVEIK
binds	anti-B7-H4 antibody 817 (antibody, V domains shown) VH: EVQLVESGGGLVQPGGSLRLSCAASGFTFSSYAMHWVRQAPGKGLEWVSAISGSGGSTRYADSVKGRFTISRDNSKNTLYLQMNSLRAEDTAVYYCARGRWSKWGFDVWGQGTLVTVSS VL: not shown
